{"source": "patent US20260242735A1", "about": "(UNIVERSIT T BASEL, published 2026)", "binders": {"B1": {"name": "Refmab #2 (antibody, V domains shown)", "VH": "QVQLVQSGAEVKKPGSSVKVSCKASGGTFSDYAISWVRQAPGQGLEWMGRIIPILGVADYAQKFQGRVTITADKSTRTAYMELSSLRSEDTAVYYCARNWADAFDIWGQGTMVTVSS", "VL": "DIQLTQSPSSLSASVGDRVTITCRASQGISSVLAWYQQKPGKAPKLLIYDASSLESGVPSRFSGSGSGTDFTLTISSLQPEDFATYYCQQFDSSITFGQGTKLEIK", "notes": "The alanine scan used IgG or Fab"}}, "test_in_all_cases": "flow cytometry, alanine scan", "key": {"human CD33 H346A": {"target": "human CD33 H346A (human, UniProt P20138 18-364)", "sequence (P20138 18-364 H346A limits assumed)": "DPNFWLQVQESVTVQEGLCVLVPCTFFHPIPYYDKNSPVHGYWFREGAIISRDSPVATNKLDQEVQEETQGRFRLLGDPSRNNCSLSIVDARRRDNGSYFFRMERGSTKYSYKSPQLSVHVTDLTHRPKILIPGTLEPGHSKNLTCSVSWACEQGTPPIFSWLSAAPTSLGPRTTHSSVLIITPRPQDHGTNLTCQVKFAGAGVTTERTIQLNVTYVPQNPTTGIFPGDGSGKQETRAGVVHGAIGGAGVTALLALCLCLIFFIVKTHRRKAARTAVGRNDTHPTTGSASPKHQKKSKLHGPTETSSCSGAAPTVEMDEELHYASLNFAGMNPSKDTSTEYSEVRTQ", "method": "(§1) An alanine scan on human CD33 was performed to the determine the residues on CD33 that are involved in binding to the antibodies investigated. […] Briefly, a mutation library of CD33 was created by high-throughput, site-directed mutagenesis. Each residue was individually mutated to alanine, with alanine codons mutated to serine. The mutant library was arrayed in 384-well microplates and transiently transfected into HEK293-T. Following transfection, cells were incubated with the indicated antibodies (IgG or Fab) at concentrations pre-determined using an independent immunofluorescence titration curve on wild type CD33. […] Binding of each antibody to each mutant clone was determined in duplicates. For each point, background fluorescence was subtracted from the raw data, which were then normalized to antibody reactivity with wild type CD33.\n(§2) Critical residues for antibody binding (outlined in dark grey) were residues whose mutations led to a binding of the test Abs of less than 20%. Additional secondary residues (outlined in light grey) were identified that led to a binding of the test Abs of between 20 and 40% as compared to the wild type CD33."}, "human CD33 P350A": {"target": "human CD33 P350A (human, UniProt P20138 18-364)", "method": "as §1, §2"}, "human CD33 T363A": {"target": "human CD33 T363A (human, UniProt P20138 18-364)", "method": "as §1, §2"}, "human CD33 V332A": {"target": "human CD33 V332A (human, UniProt P20138 18-364)", "method": "as §1, §2"}, "human CD33 T354A": {"target": "human CD33 T354A (human, UniProt P20138 18-364)", "method": "as §1, §2"}, "human CD33 S324A": {"target": "human CD33 S324A (human, UniProt P20138 18-364)", "method": "as §1, §2"}, "human CD33 G318A": {"target": "human CD33 G318A (human, UniProt P20138 18-364)", "method": "as §1, §2"}, "human CD33 Y358A": {"target": "human CD33 Y358A (human, UniProt P20138 18-364)", "sequence (P20138 18-364 Y358A limits assumed)": "as the sequence (P20138 18-364 H346A limits assumed) above, with A329H, Y341A counted along it", "method": "as §1, §2"}, "human CD33 M334A": {"target": "human CD33 M334A (human, UniProt P20138 18-364)", "method": "as §1, §2"}, "human CD33 C325A": {"target": "human CD33 C325A (human, UniProt P20138 18-364)", "method": "as §1, §2"}, "human CD33 T322A": {"target": "human CD33 T322A (human, UniProt P20138 18-364)", "method": "as §1, §2"}, "human CD33 T356A": {"target": "human CD33 T356A (human, UniProt P20138 18-364)", "method": "as §1, §2"}, "human CD33 S351A": {"target": "human CD33 S351A (human, UniProt P20138 18-364)", "method": "as §1, §2"}, "human CD33 K352A": {"target": "human CD33 K352A (human, UniProt P20138 18-364)", "method": "as §1, §2"}, "human CD33 G347A": {"target": "human CD33 G347A (human, UniProt P20138 18-364)", "sequence (P20138 18-364 G347A limits assumed)": "as the sequence (P20138 18-364 H346A limits assumed) above, with A329H, G330A counted along it", "method": "as §1, §2"}, "human CD33 E333A": {"target": "human CD33 E333A (human, UniProt P20138 18-364)", "method": "as §1, §2"}, "human CD33 E360A": {"target": "human CD33 E360A (human, UniProt P20138 18-364)", "method": "as §1, §2"}, "human CD33 F345A": {"target": "human CD33 F345A (human, UniProt P20138 18-364)", "sequence (P20138 18-364 F345A limits assumed)": "as the sequence (P20138 18-364 H346A limits assumed) above, with F328A, A329H counted along it", "method": "as §1, §2"}, "human CD33 M348A": {"target": "human CD33 M348A (human, UniProt P20138 18-364)", "method": "as §1, §2"}, "human CD33 R362A": {"target": "human CD33 R362A (human, UniProt P20138 18-364)", "method": "as §1, §2"}, "human CD33 L338A": {"target": "human CD33 L338A (human, UniProt P20138 18-364)", "method": "as §1, §2"}, "human CD33 S323A": {"target": "human CD33 S323A (human, UniProt P20138 18-364)", "method": "as §1, §2"}, "human CD33 L343A": {"target": "human CD33 L343A (human, UniProt P20138 18-364)", "method": "as §1, §2"}, "human CD33 S355A": {"target": "human CD33 S355A (human, UniProt P20138 18-364)", "sequence (P20138 18-364 S355A limits assumed)": "as the sequence (P20138 18-364 H346A limits assumed) above, with A329H, S338A counted along it", "method": "as §1, §2"}, "human CD33 N349A": {"target": "human CD33 N349A (human, UniProt P20138 18-364)", "method": "as §1, §2"}, "human CD33 D335A": {"target": "human CD33 D335A (human, UniProt P20138 18-364)", "sequence (P20138 18-364 D335A limits assumed)": "as the sequence (P20138 18-364 H346A limits assumed) above, with D318A, A329H counted along it", "method": "as §1, §2"}, "human CD33 D353A": {"target": "human CD33 D353A (human, UniProt P20138 18-364)", "sequence (P20138 18-364 D353A limits assumed)": "as the sequence (P20138 18-364 H346A limits assumed) above, with A329H, D336A counted along it", "method": "as §1, §2"}, "human CD33 S359A": {"target": "human CD33 S359A (human, UniProt P20138 18-364)", "method": "as §1, §2"}, "human CD33 Q364A": {"target": "human CD33 Q364A (human, UniProt P20138 18-363)", "method": "as §1, §2"}, "human CD33 Y340A": {"target": "human CD33 Y340A (human, UniProt P20138 18-364)", "method": "as §1, §2"}, "human CD33 E336A": {"target": "human CD33 E336A (human, UniProt P20138 18-364)", "sequence (P20138 18-364 E336A limits assumed)": "as the sequence (P20138 18-364 H346A limits assumed) above, with E319A, A329H counted along it", "method": "as §1, §2"}, "human CD33 S342A": {"target": "human CD33 S342A (human, UniProt P20138 18-364)", "sequence (P20138 18-364 S342A limits assumed)": "as the sequence (P20138 18-364 H346A limits assumed) above, with S325A, A329H counted along it", "method": "as §1, §2"}, "human CD33 P330A": {"target": "human CD33 P330A (human, UniProt P20138 18-364)", "sequence (P20138 18-364 P330A limits assumed)": "as the sequence (P20138 18-364 H346A limits assumed) above, with P313A, A329H counted along it", "method": "as §1, §2"}, "human CD33 T320A": {"target": "human CD33 T320A (human, UniProt P20138 18-364)", "method": "as §1, §2"}, "human CD33 T331A": {"target": "human CD33 T331A (human, UniProt P20138 18-364)", "sequence (P20138 18-364 T331A limits assumed)": "as the sequence (P20138 18-364 H346A limits assumed) above, with T314A, A329H counted along it", "method": "as §1, §2"}, "human CD33 S326A": {"target": "human CD33 S326A (human, UniProt P20138 18-364)", "method": "as §1, §2"}, "human CD33 P319A": {"target": "human CD33 P319A (human, UniProt P20138 18-364)", "method": "as §1, §2"}, "human CD33 A341S": {"target": "human CD33 A341S (human, UniProt P20138 18-364)", "method": "as §1, §2"}, "human CD33 N344A": {"target": "human CD33 N344A (human, UniProt P20138 18-364)", "method": "as §1, §2"}, "human CD33 H339A": {"target": "human CD33 H339A (human, UniProt P20138 18-364)", "sequence (P20138 18-364 H339A limits assumed)": "as the sequence (P20138 18-364 H346A limits assumed) above, with H322A, A329H counted along it", "method": "as §1, §2"}, "human CD33 A329S": {"target": "human CD33 A329S (human, UniProt P20138 18-364)", "sequence (P20138 18-364 A329S limits assumed)": "as the sequence (P20138 18-364 H346A limits assumed) above, with A312S, A329H counted along it", "method": "as §1, §2"}, "human CD33 G327A": {"target": "human CD33 G327A (human, UniProt P20138 18-364)", "method": "as §1, §2"}, "human CD33 A328S": {"target": "human CD33 A328S (human, UniProt P20138 18-364)", "method": "as §1, §2"}, "human CD33 E321A": {"target": "human CD33 E321A (human, UniProt P20138 18-364)", "sequence (P20138 18-364 E321A limits assumed)": "as the sequence (P20138 18-364 H346A limits assumed) above, with E304A, A329H counted along it", "method": "as §1, §2"}, "human CD33 E357A": {"target": "human CD33 E357A (human, UniProt P20138 18-364)", "method": "as §1, §2"}, "human CD33 V361A": {"target": "human CD33 V361A (human, UniProt P20138 18-364)", "method": "as §1, §2"}, "human CD33 E337A": {"target": "human CD33 E337A (human, UniProt P20138 18-364)", "method": "as §1, §2"}}, "data": [{"binder": "B1", "values": [{"measurement": "Mean % WT Binding", "setting": "human CD33 H346A", "result": "118 % of WT"}, {"measurement": "Mean % WT Binding", "setting": "human CD33 P350A", "result": "117 % of WT"}, {"measurement": "Mean % WT Binding", "setting": "human CD33 T363A", "result": "108 % of WT"}, {"measurement": "Mean % WT Binding", "setting": "human CD33 V332A", "result": "91.6 % of WT"}, {"measurement": "Mean % WT Binding", "setting": "human CD33 T354A", "result": "111 % of WT"}, {"measurement": "Mean % WT Binding", "setting": "human CD33 S324A", "result": "106 % of WT"}, {"measurement": "Mean % WT Binding", "setting": "human CD33 G318A", "result": "106 % of WT"}, {"measurement": "Mean % WT Binding", "setting": "human CD33 Y358A", "result": "110 % of WT"}, {"measurement": "Mean % WT Binding", "setting": "human CD33 M334A", "result": "106 % of WT"}, {"measurement": "Mean % WT Binding", "setting": "human CD33 C325A", "result": "109 % of WT"}, {"measurement": "Mean % WT Binding", "setting": "human CD33 T322A", "result": "111 % of WT"}, {"measurement": "Mean % WT Binding", "setting": "human CD33 T356A", "result": "111 % of WT"}, {"measurement": "Mean % WT Binding", "setting": "human CD33 S351A", "result": "109 % of WT"}, {"measurement": "Mean % WT Binding", "setting": "human CD33 K352A", "result": "113 % of WT"}, {"measurement": "Mean % WT Binding", "setting": "human CD33 G347A", "result": "85.9 % of WT"}, {"measurement": "Mean % WT Binding", "setting": "human CD33 E333A", "result": "108 % of WT"}, {"measurement": "Mean % WT Binding", "setting": "human CD33 E360A", "result": "101 % of WT"}, {"measurement": "Mean % WT Binding", "setting": "human CD33 F345A", "result": "102 % of WT"}, {"measurement": "Mean % WT Binding", "setting": "human CD33 M348A", "result": "115 % of WT"}, {"measurement": "Mean % WT Binding", "setting": "human CD33 R362A", "result": "119 % of WT"}, {"measurement": "Mean % WT Binding", "setting": "human CD33 L338A", "result": "107 % of WT"}, {"measurement": "Mean % WT Binding", "setting": "human CD33 S323A", "result": "119 % of WT"}, {"measurement": "Mean % WT Binding", "setting": "human CD33 L343A", "result": "111 % of WT"}, {"measurement": "Mean % WT Binding", "setting": "human CD33 S355A", "result": "105 % of WT"}, {"measurement": "Mean % WT Binding", "setting": "human CD33 N349A", "result": "110 % of WT"}, {"measurement": "Mean % WT Binding", "setting": "human CD33 D335A", "result": "117 % of WT"}, {"measurement": "Mean % WT Binding", "setting": "human CD33 D353A", "result": "94.4 % of WT"}, {"measurement": "Mean % WT Binding", "setting": "human CD33 S359A", "result": "102 % of WT"}, {"measurement": "Mean % WT Binding", "setting": "human CD33 Q364A", "result": "109 % of WT"}, {"measurement": "Mean % WT Binding", "setting": "human CD33 Y340A", "result": "106 % of WT"}, {"measurement": "Mean % WT Binding", "setting": "human CD33 E336A", "result": "117 % of WT"}, {"measurement": "Mean % WT Binding", "setting": "human CD33 S342A", "result": "117 % of WT"}, {"measurement": "Mean % WT Binding", "setting": "human CD33 P330A", "result": "119 % of WT"}, {"measurement": "Mean % WT Binding", "setting": "human CD33 T320A", "result": "112 % of WT"}, {"measurement": "Mean % WT Binding", "setting": "human CD33 T331A", "result": "91.3 % of WT"}, {"measurement": "Mean % WT Binding", "setting": "human CD33 S326A", "result": "109 % of WT"}, {"measurement": "Mean % WT Binding", "setting": "human CD33 P319A", "result": "100 % of WT"}, {"measurement": "Mean % WT Binding", "setting": "human CD33 A341S", "result": "116 % of WT"}, {"measurement": "Mean % WT Binding", "setting": "human CD33 N344A", "result": "88.1 % of WT"}, {"measurement": "Mean % WT Binding", "setting": "human CD33 H339A", "result": "99.5 % of WT"}, {"measurement": "Mean % WT Binding", "setting": "human CD33 A329S", "result": "116 % of WT"}, {"measurement": "Mean % WT Binding", "setting": "human CD33 G327A", "result": "122 % of WT"}, {"measurement": "Mean % WT Binding", "setting": "human CD33 A328S", "result": "102 % of WT"}, {"measurement": "Mean % WT Binding", "setting": "human CD33 E321A", "result": "117 % of WT"}, {"measurement": "Mean % WT Binding", "setting": "human CD33 E357A", "result": "104 % of WT"}, {"measurement": "Mean % WT Binding", "setting": "human CD33 V361A", "result": "99.4 % of WT"}, {"measurement": "Mean % WT Binding", "setting": "human CD33 E337A", "result": "116 % of WT"}]}]}
